According to a protein production outcome set (Wang et al. 2014):

Test: label from the status in PepcDB records

| Sequence | protein production |
| --- | --- |
| AANPDIMYRLLIQSVVDYAIYLLTPEGIVANWNPGAQRAKGYRAEEIVGQHYSLFYTDAERAAGLPAFNLEQARSTGRFEETGARLRKDGTAFHAHVVIEAVYDDAGQLVGFAKVTRDISERHRQELELLQAKELAEQYSQEMAKLSQFLDSVIANIP | failed |
| AAVLTQDKNTPTYGPANGKVTVIEFFDYQCVYCSRLAPVMEQVIKAHPQTRFAFKEWPIFGGRWESSLEAAKTGLQIYQQKGADAYLAYHNGIYATGHNEGKLTTADIQQQAKKAGFDAKKAADVEPVLQSINDLAQEIGLSGTPGVIVMPTTGATEASITVFPGLADKASLEAAIKKAGG | failed |
| ADAQLIGHTNPSGEITFGEETFTIAQALDTLERDYREVYPLNVTTADVEALPDFATALPKADTDSEEANASAGDKAVHVLLPVFPGTNSEYDMAEAFEAAGATTEFHIIRNLNSEMLAADTEAFITKLQSANILAFSGGFSLGDEPDGSAKFMAAFLRSDTVAAAIKDFVARDGLVLGICNGFQALVKSGFLPYGDPAKMSAESPTLAHNRQLRHVSRIATTRVSSVASPWLSTFTPGQQHLMPVSHGEGRFVVSEKEAQALFSAGQVAFQYVDAEGTPTMEAPANPNGSNYAIEGIISPDGRILGKMGHPERFRDGLMRNIPGMEIQDIFANAVNYCRKSQR | failed |
| ADEEESTPCDNVETDQQTFACAAFNKQVAERELQSAYDELIERMRDQFGDEAGLMSRIEAAEKVWSQLRDADCKVETHAEQPGSNAYQIAWNSCIAQRSDERAEYLRSLGSQNSDEPAPED | not failed |
| ADVSSSDLATLRRLTNEFQAELATLGTRVDDLEARTSELENQQFSTTTKLNGEAIFSISGATGGEPEGNDAQITFNNRLRLNLTTSFTGKDALITGLQAYNFSAGKSITGTGNVAETLFPNDASILGDSMTNLAWEPQFAGLNPQNLQPSCGNNSLCLYKLLYVRPITDKLTAFIGPKAEVTDAFPAILPFASEGQGALSRFATLNPVLRMSGGTSGTGLASAAGFIYKPNDVIDWRALYGSVNAAIPGNEGFPGTPLGAGLFNGSFIAATQLTLHPNDKLDLGLNYAYSYHQINIAGTGLTGAETRILGDLPLTTPVRFNSFGATVNWRVSPKVNLTGYGAYIMTDQANSGSAYTNLSSWMAGLYFPDAFAKGNAAGILFGQPLYRVDAGNGASLSPANIGDRQTPYQLEAFYRHQINDHISITPGAFVIFNPEGDAQNETTSVFALRTTYTF | failed |
| AEEKVKDEAMQIMGMFQILPRLVVFDLDYTLWPFYCECRSKREMPSMYPQAKGILSALKEKGIEMAIASRSPTSDIANTFLDKLNIKPMFVAKVSKMGVTSILVGDGVTLGAFRQGLTEFTQNHNSIEKNKQVWRDKYSG | failed |
| AEGRGKARADSLKAGSQGLSANKRRADGSFESVVASSLRKGDVVRVQAGEMIPGDGEVIEGVAAVNEAAITGESAPVIRESGGDRSAVTGNTQVVSDWLLVRIGANPGESTLDRMIALVEGAKRQKTPNEV | failed |
| AEGTRGRSSTARCSLFGSDFVNTFDGSMYSFAGYCSYLLAGGCQKRSFSIIGDFQNGKRVSLSVYLGEFFDIHLFVNGTVTQGDQRVSMPYASKGLYLETEAGYYKLSGEAYGFVARIDGSGNFQVLLSDRYFNKTCGLCGNFNIFAEDDFMTQEGTLTSDPYDFANSWALSSGEQWCERASPPSSSCNISSGEMQKGLWEQCQLLKSTSVFARCHPLVDPEPFVALCEKTLCECAGGLECACPALLEYARTCAQEGMVLYGWTDHSACSPVCPAGMEYRQCVSPCARTCQSLHINEMCQERCVDGCSCPEGQLLDEGLCVESTECPCVHSGKRYPPGTSLSRDCNTCICRNSQWICSNEECPGECLVTGQSHFKSFDNRYFTFSGICQYLLARDCQDHSFSIVIETVQCADDRDAVCTRSVTVRLPGLHNSLVKLKHGAGVAMDGQDIQLPLLKGDLRIQHTVTASVRLSYGEDLQMDWDGRGRLLVKLSPVYAGKTCGLCGNYNGNQGDDFLTPSGLAEPRVEDFGNAWKLHGDCQDLQKQHSDPCALNPRMTRFSEEACAVLTSPTFEACHRAVSPLPYLRNCRYDVCSCSDGRECLCGALASYAAACAGRGVRVAWREPGRCELNCPKGQVYLQCGTPCNLTCRSLSYPDEECNEACLEGCFCPPGLYMDERGDCVPKAQCPCYYDGEIFQPEDIFSDHHTMCYCEDGFMHCTMSGVPGSLLPDAVLSSPLSHRSKR | failed |
| AEITEVRIYKSKGNGSVKAYASVSFDNEFVVKGLKVVEGEKGLWVSMPSRRMKDGSFQDVFHPVSREARDKIVDAVLKAYQEQE | failed |
| AESESFVLDFSQPSADYLDFRNRLQADHVCLENCVLKDKAIAGTVKVQNLAFEKTVKIRMTFDTWKSYTDFPCQYVKDTYAGSDRDTFSFDISLPEKIQSYERMEFAVYYECNGQTYWDSNRGKNYRIIRAELKSTQGMTKPHSGPDLG | not failed |
